# Results taken from doi:10.1101/2025.09.11.675549, “CCDC103-mediated assembly of the R2C complex links RUVBL1-RUVBL2 to Primary Ciliary Dyskinesia” (bioRxiv, 2025).
# B1: GST-tagged RBD domain of CCDC103 (domain or fragment, human, UniProt Q8IW40 100-242, looked up)
# chain: ETSADFYRDWRRHLPSGPERYQALLQLGGPRLGCLFQTDVGFGLLGELLVALADHVGPADRAAVLGILCSLASTGRFTLNLSLLSRAERESCKGLFQKLQAMGNPRSVKEGLSWEEQGLEEQSGGLQEEERLLQELLELYQVD
# notes: CCDC103, human, UniProt Q8IW40, RBD without the first 99 residues (lacks N-terminal 1-99); also called GST-CCDC103 RBD; source: E. coli Rosetta (DE3) pLysS (pGEX6-P1), purified (glutathione Sepharose 4B); not shown: GST, N-terminal, kept
# B2: full-length CCDC103 (natural protein, human, UniProt Q8IW40 1-242, looked up)
# chain: MERNDIINFKALEKELQAALTADEKYKRENAAKLRAVEQRVASYEEFRGIVLASHLKPLERKDKMGGKRTVPWNCHTIQGRTFQDVATEISPEKAPLQPETSADFYRDWRRHLPSGPERYQALLQLGGPRLGCLFQTDVGFGLLGELLVALADHVGPADRAAVLGILCSLASTGRFTLNLSLLSRAERESCKGLFQKLQAMGNPRSVKEGLSWEEQGLEEQSGGLQEEERLLQELLELYQVD
# notes: CCDC103 (DNAAF19), human, UniProt Q8IW40, full length; or Sf9, Flag-tagged) stood in the strep pull-down, so the tag is left open; also called CCDC103FL; DNAAF19
# Legend:
# [1] = target: T1, RUVBL1-RUVBL2-strep complex (6XHIS-RUVBL1-RUVBL2-strep) (human, UniProt Q9Y265 1-456; Q9Y230 1-463); experiment: pull-down; 10 uM GST-CCDC103 RBD and 10 uM RUVBL1-RUVBL2 on GST beads; 50mM HEPES pH 7.5, 140mM NaCl, 0.001% Tween 20; 45 min at 4 C; three washes; SDS-PAGE; details: both partners purified
# T1 construct: RUVBL1 (RuvB like 1), human, UniProt Q9Y265; RUVBL2 (RuvB like 2), human, UniProt Q9Y230; also called RUVBL1-RUVBL2 complex; hetero-hexameric ring; source: E. coli Rosetta (DE3) pLysS (pRSETA and pCDF Duet 1), purified by a previously defined protocol; not shown: Strep, C-terminal, kept; copies: 3 + 3
# T1 sequence (Q9Y265 whole entry, chain 1 of 2): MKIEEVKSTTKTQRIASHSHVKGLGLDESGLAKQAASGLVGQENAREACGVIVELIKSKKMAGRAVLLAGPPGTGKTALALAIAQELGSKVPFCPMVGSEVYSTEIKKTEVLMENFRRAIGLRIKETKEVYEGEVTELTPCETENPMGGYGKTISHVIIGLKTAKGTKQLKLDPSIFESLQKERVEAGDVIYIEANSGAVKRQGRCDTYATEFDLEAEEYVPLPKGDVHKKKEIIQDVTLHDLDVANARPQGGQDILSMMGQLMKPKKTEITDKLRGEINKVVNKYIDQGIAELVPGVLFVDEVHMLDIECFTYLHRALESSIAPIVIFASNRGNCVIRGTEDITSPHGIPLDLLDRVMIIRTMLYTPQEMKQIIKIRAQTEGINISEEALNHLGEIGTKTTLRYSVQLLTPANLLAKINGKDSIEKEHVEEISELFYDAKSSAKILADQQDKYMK
# T1 sequence (Q9Y230 whole entry, chain 2 of 2): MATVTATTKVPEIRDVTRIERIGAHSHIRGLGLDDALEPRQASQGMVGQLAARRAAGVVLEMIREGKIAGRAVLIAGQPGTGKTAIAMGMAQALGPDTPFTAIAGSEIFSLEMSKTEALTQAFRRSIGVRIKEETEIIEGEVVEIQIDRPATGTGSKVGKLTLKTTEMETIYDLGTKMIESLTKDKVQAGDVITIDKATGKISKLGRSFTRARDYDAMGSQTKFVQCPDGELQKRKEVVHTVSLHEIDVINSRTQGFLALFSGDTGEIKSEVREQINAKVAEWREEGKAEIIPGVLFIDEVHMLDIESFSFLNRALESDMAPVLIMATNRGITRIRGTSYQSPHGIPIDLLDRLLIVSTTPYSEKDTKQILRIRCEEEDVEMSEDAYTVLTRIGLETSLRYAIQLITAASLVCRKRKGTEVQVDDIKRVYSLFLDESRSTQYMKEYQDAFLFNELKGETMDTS
# [2] = target: T1, RUVBL1-RUVBL2-strep complex …; experiment: pull-down; RUVBL1-RUVBL2-strep held on Streptavidin Mag Sepharose beads, full-length CCDC103 as prey; 50mM HEPES pH 7.5, 140mM NaCl, 0.001% Tween 20; eluted with 2.5mM desthiobiotin; SDS-PAGE; details: both partners purified
Binder,binding result [1],binding result [2]
B1,binds,–
B2,–,binds
